The test addresses epidermal growth factor receptor (EGFR) on EGFR positive U87 cells (UniProt P00533). As to the kind of experiment: FACS, saturation binding to EGFR on cells. On the technique in general: Flow cytometry measures light scatter and fluorescence of single cells or particles in a stream.

As for “Anti-EGFR-Angiopep-2 conjugate (EGFR antibody monoclonal 528 cross-linked to Angiopep-2 with SATA)”, the Half saturation was determined as 1.8 nM. For the substance “EGFR antibody (monoclonal 528 available from ATCC)”, the Bmax (RFU) is 23.6 RFU and the Half saturation was found to be 1.7 nM.

The record behind these values is patent US20100297120A1.
